Experimental data as given in publication PMC3507621.

B1: wild type recombinant N-terminal region of PTX3 (N_PTX3) [human] / mouse TSG-6 (tumor necrosis factor-induced protein 6) [mouse] (parent)
chain 1: WGFKNGIFHNSIWLEQAAGVYHREARAGRYKLTYAEAKAVCEFEGGRLATYKQLEAARKIGFHVCAAGWMAKGRVGYPIVKPGPNCGFGKTGIIDYGIRLNRSERWDAYCYNPHAKECGGVFTDPKRIFKSPGFPNEYDDNQVCYWHIRLKYGQRIHLSFLDFDLEHDPGCLADYVEIYDSYDDVHGFVGRYCGDELPEDIISTGNVMTLKFLSDASVTAGGFQIKYVTVDPASKSSQAKNTSTTGNKKFLPGRFSHL
chain 2: ENSDDYDLMYVNLDNEIDNGLHPTEDPTPCACGQEHSEWDKLFIMLENSQMRERMLLQATDDVLRGELQRLREELGRLAESLARPCAPGAPAEARLTSALDELLQATRDAGRRLARMEGAEAQRPEEAGRALAAVLEELRQTRADLHAVQGWATG
B2: wild type recombinant N-terminal region of PTX3 (N_PTX3) [human] / mouse TSG-6 (tumor necrosis factor-induced protein 6) [mouse] (parent)
chain 1: B1 chain 2
chain 2: B1 chain 1

Key:
[1] = variants of: B1; assay: ELISA; conditions: with mouse TSG-6 (tumor necrosis factor-induced protein 6) [mouse], pH 7.4, PBS with Ca2+ and Mg2+, read off a plot
[2] = variants of: B2; assay: competition ELISA (bPTX3 detected with HRP-conjugated streptavidin); conditions: with mouse TSG-6 (tumor necrosis factor-induced protein 6) [mouse], wells coated with TSG-6, read off a plot
[3] = TSG-6 about 0.38 nM (est. from x axis), parent: 0.29
[4] = TSG-6 about 1.6 nM (est. from x axis), parent: 0.91
[5] = TSG-6 about 6.2 nM (est. from x axis), parent: 1.7
[6] = TSG-6 about 26 nM (est. from x axis), parent: 2.2
[7] = TSG-6 about 100 nM (est. from x axis), parent: 2.3

| Variant | response [1, 3] | response [1, 4] | response [1, 5] | response [1, 6] | response [1, 7] | screen value ([2]; competitor about 0.24 nM (est. from x axis), parent: 99) [%] | screen value ([2]; competitor about 1.2 nM (est. from x axis), parent: 90) [%] | screen value ([2]; competitor about 12 nM (est. from x axis), parent: 82) [%] | screen value ([2]; competitor about 120 nM (est. from x axis), parent: 58) [%] | screen value ([2]; competitor about 1200 nM (est. from x axis), parent: 17) [%] |
| --- | --- | --- | --- | --- | --- | --- | --- | --- | --- | --- |
| chain 2 C30S C32S | 0.14 O.D. (450nm) | 0.5 O.D. (450nm) | 1.1 O.D. (450nm) | 1.9 O.D. (450nm) | 2.2 O.D. (450nm) | – | – | – | – | – |
| chain 2 C30S C32S C86S | 0.31 O.D. (450nm) | 0.91 O.D. (450nm) | 1.7 O.D. (450nm) | 2.2 O.D. (450nm) | 2.2 O.D. (450nm) | – | – | – | – | – |
| chain 2 C86S | 0.3 O.D. (450nm) | 0.91 O.D. (450nm) | 1.6 O.D. (450nm) | 2.2 O.D. (450nm) | 2.3 O.D. (450nm) | – | – | – | – | – |
| chain 1 C30S C32S C86S | – | – | – | – | – | 97 | 93 | 84 | 64 | 29 |
